Results on 3 substances are retold here after patent US10087225B2, “Formulation of MK2 inhibitor peptides” (MOERAE MATRIX, INC., priority 2015, dated 2018).

Targets include EphA7(h) (Homo sapiens, UniProt Q15375); LOK(h) (Homo sapiens, UniProt O94804); Met(Y1248H)(h) (Homo sapiens, UniProt P08581, Y1230H); PKCδ(h) (Homo sapiens, UniProt Q05655); STK33(h) (Homo sapiens, UniProt Q9BYT3).
Assay in all cases: Kinase Profiling Assay
Assay type in all cases: biochemical
Holding throughout (details): for % activity: 100 μM

For a further assay, the target named is T1, BrSK1(h) (Homo sapiens, UniProt Q8TDC3).
T1 sequence (Q8TDC3 1-778): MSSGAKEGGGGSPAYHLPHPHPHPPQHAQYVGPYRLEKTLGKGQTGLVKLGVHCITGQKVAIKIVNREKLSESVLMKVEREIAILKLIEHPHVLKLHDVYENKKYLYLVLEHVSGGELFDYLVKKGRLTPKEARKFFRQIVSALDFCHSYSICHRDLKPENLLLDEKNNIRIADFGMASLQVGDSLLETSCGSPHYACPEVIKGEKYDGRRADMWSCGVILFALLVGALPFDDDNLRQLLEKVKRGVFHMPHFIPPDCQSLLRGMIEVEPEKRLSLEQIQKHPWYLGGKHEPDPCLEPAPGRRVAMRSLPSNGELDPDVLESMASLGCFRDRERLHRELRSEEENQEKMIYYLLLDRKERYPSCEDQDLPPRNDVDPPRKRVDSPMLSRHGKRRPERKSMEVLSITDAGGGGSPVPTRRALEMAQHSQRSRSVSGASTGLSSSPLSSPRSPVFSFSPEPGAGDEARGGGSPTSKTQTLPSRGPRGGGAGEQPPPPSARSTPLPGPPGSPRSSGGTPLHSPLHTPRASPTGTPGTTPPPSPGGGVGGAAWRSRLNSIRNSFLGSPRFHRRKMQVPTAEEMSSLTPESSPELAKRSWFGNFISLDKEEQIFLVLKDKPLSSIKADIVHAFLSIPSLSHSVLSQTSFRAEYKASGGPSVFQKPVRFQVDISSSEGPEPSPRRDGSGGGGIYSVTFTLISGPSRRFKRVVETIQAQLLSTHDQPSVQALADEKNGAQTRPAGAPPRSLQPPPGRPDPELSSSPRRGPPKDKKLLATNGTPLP

The next assay has as its target T2, DMPK(h) (Homo sapiens, UniProt Q09013).
T2 sequence (Q09013 1-629): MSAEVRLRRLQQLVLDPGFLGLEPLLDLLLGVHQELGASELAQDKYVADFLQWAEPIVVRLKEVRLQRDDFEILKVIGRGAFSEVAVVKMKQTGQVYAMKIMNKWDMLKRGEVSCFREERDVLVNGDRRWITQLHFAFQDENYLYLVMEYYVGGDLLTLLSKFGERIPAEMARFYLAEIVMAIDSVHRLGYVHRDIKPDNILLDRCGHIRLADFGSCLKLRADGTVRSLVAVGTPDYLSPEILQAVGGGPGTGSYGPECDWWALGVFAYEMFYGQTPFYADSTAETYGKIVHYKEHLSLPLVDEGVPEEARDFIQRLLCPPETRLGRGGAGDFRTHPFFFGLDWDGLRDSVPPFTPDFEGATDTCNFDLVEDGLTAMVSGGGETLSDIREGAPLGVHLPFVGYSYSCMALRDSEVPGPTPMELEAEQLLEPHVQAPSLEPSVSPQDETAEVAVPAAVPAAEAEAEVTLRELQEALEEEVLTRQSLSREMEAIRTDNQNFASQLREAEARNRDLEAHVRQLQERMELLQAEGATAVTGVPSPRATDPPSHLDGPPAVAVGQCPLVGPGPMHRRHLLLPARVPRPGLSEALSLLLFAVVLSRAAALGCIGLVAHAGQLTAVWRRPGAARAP

A further assay has as its target T3, ZAP-70(h) (Homo sapiens, UniProt P43403).
T3 sequence (P43403 1-619): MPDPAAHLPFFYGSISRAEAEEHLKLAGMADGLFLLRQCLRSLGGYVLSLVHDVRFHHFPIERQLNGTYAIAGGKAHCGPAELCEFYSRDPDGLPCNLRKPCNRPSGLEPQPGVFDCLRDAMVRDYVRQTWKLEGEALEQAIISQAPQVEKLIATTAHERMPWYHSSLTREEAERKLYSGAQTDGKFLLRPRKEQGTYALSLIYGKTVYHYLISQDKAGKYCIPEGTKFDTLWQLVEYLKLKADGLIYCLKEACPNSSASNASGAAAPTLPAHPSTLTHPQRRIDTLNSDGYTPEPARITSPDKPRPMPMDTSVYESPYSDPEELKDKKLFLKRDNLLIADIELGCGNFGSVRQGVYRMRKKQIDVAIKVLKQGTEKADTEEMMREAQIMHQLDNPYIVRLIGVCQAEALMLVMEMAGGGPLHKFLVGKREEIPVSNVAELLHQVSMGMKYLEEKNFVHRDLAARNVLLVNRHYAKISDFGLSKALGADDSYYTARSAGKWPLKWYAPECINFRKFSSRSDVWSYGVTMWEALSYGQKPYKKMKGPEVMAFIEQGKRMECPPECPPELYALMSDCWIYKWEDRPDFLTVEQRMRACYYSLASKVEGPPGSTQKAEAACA

STK33(h), sequence (Q9BYT3 whole entry): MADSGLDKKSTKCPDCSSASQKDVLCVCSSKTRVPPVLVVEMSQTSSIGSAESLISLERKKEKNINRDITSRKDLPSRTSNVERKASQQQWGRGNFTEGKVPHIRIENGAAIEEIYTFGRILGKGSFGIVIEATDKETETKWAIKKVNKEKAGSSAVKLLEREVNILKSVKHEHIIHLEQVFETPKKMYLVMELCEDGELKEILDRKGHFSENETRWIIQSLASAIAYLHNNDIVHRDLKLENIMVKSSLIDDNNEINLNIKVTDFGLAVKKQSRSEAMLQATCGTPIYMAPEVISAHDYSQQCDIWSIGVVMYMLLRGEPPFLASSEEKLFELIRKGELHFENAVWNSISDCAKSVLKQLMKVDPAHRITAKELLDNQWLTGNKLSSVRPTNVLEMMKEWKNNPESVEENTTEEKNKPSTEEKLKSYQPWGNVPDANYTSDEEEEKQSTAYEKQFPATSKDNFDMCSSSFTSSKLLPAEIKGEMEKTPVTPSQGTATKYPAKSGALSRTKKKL
LOK(h), sequence (O94804 whole entry): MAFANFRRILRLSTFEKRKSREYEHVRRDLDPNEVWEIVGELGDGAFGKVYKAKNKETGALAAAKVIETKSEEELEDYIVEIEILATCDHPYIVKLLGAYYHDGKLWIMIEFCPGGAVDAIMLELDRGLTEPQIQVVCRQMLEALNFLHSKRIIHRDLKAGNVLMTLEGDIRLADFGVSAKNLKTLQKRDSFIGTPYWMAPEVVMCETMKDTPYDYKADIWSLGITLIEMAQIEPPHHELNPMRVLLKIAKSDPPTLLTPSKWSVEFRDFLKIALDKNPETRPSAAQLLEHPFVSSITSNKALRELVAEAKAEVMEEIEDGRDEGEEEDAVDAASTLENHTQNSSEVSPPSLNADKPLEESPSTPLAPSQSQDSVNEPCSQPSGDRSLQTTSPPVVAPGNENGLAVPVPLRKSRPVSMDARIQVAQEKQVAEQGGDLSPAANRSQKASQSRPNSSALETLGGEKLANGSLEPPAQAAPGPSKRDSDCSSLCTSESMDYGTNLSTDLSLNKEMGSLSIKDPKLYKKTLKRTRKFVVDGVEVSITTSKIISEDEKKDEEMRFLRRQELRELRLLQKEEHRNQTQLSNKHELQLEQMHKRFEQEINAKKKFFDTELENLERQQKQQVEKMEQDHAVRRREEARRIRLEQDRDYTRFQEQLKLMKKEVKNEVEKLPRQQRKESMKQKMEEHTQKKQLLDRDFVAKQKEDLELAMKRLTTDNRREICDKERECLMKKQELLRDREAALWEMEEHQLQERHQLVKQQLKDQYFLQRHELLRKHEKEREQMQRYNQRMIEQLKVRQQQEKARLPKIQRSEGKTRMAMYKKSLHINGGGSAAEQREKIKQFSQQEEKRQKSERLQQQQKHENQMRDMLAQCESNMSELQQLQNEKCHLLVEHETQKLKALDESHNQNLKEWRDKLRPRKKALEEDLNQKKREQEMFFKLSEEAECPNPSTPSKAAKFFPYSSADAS
PKCδ(h), sequence (Q05655 whole entry): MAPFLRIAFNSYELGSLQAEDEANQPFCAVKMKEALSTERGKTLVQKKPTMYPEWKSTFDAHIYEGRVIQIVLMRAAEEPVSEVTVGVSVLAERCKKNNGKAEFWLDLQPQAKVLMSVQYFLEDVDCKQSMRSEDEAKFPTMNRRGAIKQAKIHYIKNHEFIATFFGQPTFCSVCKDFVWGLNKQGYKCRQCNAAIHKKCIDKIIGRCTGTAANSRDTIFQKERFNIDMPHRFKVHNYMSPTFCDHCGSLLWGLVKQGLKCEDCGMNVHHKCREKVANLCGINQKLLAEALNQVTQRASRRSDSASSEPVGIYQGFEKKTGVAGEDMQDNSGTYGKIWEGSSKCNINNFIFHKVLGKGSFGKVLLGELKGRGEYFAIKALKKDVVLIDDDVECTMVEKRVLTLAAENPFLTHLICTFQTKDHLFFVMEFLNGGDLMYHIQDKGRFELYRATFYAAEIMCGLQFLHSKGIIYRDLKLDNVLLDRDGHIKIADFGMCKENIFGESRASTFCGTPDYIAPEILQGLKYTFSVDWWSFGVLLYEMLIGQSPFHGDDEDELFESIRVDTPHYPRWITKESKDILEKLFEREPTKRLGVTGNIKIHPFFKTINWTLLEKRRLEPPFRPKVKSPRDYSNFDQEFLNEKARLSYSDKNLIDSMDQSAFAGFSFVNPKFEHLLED
EphA7(h), sequence (Q15375 28-998): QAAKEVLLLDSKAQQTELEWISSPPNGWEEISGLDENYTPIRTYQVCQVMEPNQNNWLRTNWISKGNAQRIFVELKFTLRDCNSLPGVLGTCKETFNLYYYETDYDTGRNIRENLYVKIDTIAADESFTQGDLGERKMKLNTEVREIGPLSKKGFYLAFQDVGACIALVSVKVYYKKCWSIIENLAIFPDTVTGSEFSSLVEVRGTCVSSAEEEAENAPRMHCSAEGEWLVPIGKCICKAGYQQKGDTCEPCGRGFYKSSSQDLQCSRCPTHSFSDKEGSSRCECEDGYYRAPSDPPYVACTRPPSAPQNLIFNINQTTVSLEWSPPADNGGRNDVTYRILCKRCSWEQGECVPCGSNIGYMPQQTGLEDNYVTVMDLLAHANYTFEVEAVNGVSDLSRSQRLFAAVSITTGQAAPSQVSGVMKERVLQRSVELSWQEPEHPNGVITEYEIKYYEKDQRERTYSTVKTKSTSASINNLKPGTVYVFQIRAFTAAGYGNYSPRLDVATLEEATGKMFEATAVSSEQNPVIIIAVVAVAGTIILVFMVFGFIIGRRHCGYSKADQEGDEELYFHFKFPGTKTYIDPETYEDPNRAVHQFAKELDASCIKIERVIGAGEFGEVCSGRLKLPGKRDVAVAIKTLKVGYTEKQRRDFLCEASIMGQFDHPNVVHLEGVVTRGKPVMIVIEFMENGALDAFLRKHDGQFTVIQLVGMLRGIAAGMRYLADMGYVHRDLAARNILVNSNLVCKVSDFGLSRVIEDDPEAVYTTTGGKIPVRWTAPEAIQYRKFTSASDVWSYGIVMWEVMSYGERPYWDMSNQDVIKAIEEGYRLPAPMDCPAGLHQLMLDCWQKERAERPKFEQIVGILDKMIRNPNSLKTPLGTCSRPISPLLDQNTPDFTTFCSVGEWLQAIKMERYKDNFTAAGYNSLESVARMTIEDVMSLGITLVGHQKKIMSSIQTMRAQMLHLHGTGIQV

As for H-YARAAARQARAKALARQLGVAA-OH [MMI-0100], the activity at 100 µM at BrSK1(h) was determined as 100%; at DMPK(h) it was 60%; on EphA7(h) it was 193%; at LOK(h), 37%; at Met(Y1248H)(h), 88%; at PKCδ(h) it was 100%. Further, the activity at 100 µM at STK33(h) was determined as 99%; at ZAP-70(h), 79%.

Turning to “HRRIKAWLKKIKALARQLGVAA (Mammalian) [MMI-0500]”, the “% activity” value with BrSK1(h) was determined as 72%; with DMPK(h), 12%; with EphA7(h) it was 189%; with LOK(h), 7%; with Met(Y1248H)(h), 126%; with PKCδ(h), 61%. The “% activity” value in the assay with STK33(h) is recorded as 16%; with ZAP-70(h) it was 1%.

In the case of “YARAAARQARAKALNRQLGVA (Mammalian) [MMI-0200]”, the “% activity” value is reported as 93% with BrSK1(h); 66% in the assay with DMPK(h); 220% with EphA7(h); 67% with LOK(h); 153% with Met(Y1248H)(h); 101% with PKCδ(h). Further, the “% activity” value is recorded as 98% with STK33(h) and 58% in the assay with ZAP-70(h).
